From publication PMC3429349 (Science (New York, N.Y.), 2009) come the findings set out here.

The series concerns the molecule itself.

B1: HSF1 K80Q (natural protein, human, UniProt Q00613 1-529, looked up)
chain: MDLPVGPGAAGPSNVPAFLTKLWTLVSDPDTDALICWSPSGNSFHVFDQGQFAKEVLPKYFKHNNMASFVRQLNMYGFRQVVHIEQGGLVKPERDDTEFQHPCFLRGQEQLLENIKRKVTSVSTLKSEDIKIRQDSVTKLLTDVQLMKGKQECMDSKLLAMKHENEALWREVASLRQKHAQQQKVVNKLIQFLISLVQSNRILGVKRKIPLMLNDSGSAHSMPKYSRQFSLEHVHGSGPYSAPSPAYSSSSLYAPDAVASSGPIISDITELAPASPMASPGGSIDERPLSSSPLVRVKEEPPSPPQSPRVEEASPGRPSSVDTLLSPTALIDSILRESEPAPASVTALTDARGHTDTEGRPPSPPPTSTPEKCLSVACLDKNELSDHLDAMDSNLDNLQTMLSSHGFSVDTSALLDLFSPSVTVPDMSLPDLDSSLASIQELLSPQEPPRPPEAENSSPDSGKQLVHYTAQPLFLLDPGSVDTGSNDLPVLFELGEGSYFSEGDGFAEDPTISLLTGSEPPKAKDPTVS
Turning to B1, the “stoichiometry N” value came to 3.

The term stoichiometry N denotes a count of units in the complex or per binding partner.
